We go through six molecules from patent US20110039770A1 (PHARMAGAP, published 2011).

Where no end group is shown, it is not given here.

In assay [1] the target is T1, PKC-ε (endogenous, IMR-32 lysate) (human, UniProt Q02156 1-737).
T1 construct: Band 1 and Band 2 (alternate splicing variants, not identified further) are kept under one molecule; the band is named in the assay field of each row; also called PKC-epsilon; PKC-ε Band 1
T1 sequence (looked up): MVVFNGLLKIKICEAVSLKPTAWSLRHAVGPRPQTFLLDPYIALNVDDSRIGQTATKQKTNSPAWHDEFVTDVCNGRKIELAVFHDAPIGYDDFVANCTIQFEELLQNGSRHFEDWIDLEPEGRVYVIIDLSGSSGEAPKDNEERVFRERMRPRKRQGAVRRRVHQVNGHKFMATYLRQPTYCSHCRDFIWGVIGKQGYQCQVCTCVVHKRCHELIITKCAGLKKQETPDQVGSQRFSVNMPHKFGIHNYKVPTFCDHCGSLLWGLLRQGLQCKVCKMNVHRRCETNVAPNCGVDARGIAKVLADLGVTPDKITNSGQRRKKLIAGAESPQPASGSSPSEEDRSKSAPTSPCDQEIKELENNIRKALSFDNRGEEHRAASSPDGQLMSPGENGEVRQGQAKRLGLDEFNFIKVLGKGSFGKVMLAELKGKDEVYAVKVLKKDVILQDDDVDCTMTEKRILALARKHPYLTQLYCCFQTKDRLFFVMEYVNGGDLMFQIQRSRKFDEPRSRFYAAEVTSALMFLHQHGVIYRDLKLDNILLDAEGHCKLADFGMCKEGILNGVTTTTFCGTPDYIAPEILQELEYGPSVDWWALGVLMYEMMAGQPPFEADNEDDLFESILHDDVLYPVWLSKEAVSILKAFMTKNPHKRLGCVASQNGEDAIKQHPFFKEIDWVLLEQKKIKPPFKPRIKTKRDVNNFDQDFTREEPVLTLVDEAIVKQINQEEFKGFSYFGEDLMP
Kind of assay: WB competition Protocol B, IMR-32 extract, vs anti-PKC-ε Ab; PKC-ε Band 1; 20 µg peptide. On the procedure: (§1) The ability of the peptides PRE 2 and PRE 3 (see Table 4) to interfere with the binding of a PKC-α-specific polyclonal antibody (Santa Cruz Biotechnology, Inc.) to PKC-α was determined using a modified version of the protocol outlined above in which the test peptide was added directly to the cell extract prior to electrophoresis at a concentration of either 5× or 15× the concentration of the protein applied to each well of the gel for the Western blots (20 μg).
(§2) Peptides PRE 2, PRE 3 and PRE 4 (see Table 4) were tested for their ability to interfere with the binding of isoform-specific polyclonal antibodies (Santa Cruz Biotechnology, Inc.) to […] using the general protocol described in Example 3. Two bands, representing alternate splicing variants of PKC-ε, were identified on the Western blot using this anti-PKC-ε antibody.

In assay [2] the target is T1, PKC-ε (endogenous, IMR-32 lysate). Kind of assay: WB competition Protocol B, IMR-32 extract, vs anti-PKC-ε Ab; PKC-ε Band 2; 20 µg peptide. The protocol:
as §1, §2

The target is the same in assay [3]. Kind of assay: WB competition Protocol B, IMR-32 extract, vs anti-PKC-ε Ab; PKC-ε Band 1; 100 µg peptide. The protocol: as §1, §2
For assay [4] the target is unchanged. Kind of assay: WB competition Protocol B, IMR-32 extract, vs anti-PKC-ε Ab; PKC-ε Band 2; 50 µg peptide. On the procedure: as §1, §2
Assay [5] has the same target. Nature of the assay: WB competition Protocol B, IMR-32 extract, vs anti-PKC-ε Ab; PKC-ε Band 2; 100 µg peptide. The protocol: as §1, §2
Assay [6] has the same target. Nature of the assay: WB competition Protocol B, IMR-32 extract, vs anti-PKC-ε Ab; PKC-ε Band 1; 50 µg peptide. The protocol: as §1, §2
Assay [7] deals with T2, PKC-α (purified isoform) (Homo sapiens (Human), UniProt P17252 2-672).
T2 construct: also called purified PKC-alpha; commercially purified PKC-alpha
Nature of the assay: competitive ELISA, coated purified PKC-α, vs anti-PKC α (SC-208); PRE 200 µM. The protocol:
(§3) Greiner 96 well ELISA plates were coated with the appropriate PKC isoform diluted in PBSN (PBS with Calcium/Magnesium+0.05% Sodium azide w/w). 50 μL/well at 250 ng/mL was used. Control wells contained PBSN only. Plates were incubated overnight at 4° C.
(§4) The plates were washed 3 times with 200 μL of dH₂O per well, then 100 μL of blocking solution was added per well and the plate incubated for 1 h at 37° C. The washing steps with dH₂O were repeated and 50 μL of the appropriate PRE solution (PRE stock solution [20 mM in DMSO] diluted in PBSN) was added and the plate incubated for 1 h at room temperature.
(§5) 50 μL of 1:1000 dilution of Alkaline Phosphatase (AP) conjugated antibody (anti-rabbit for all except zeta, which was anti-goat) was then added and the plate incubated for 1 h at room temperature. Washing with dH₂O was then repeated. Finally, 100 μL of pNPP solution in pNPP buffer (2 mM MgCl₂, 100 mM Sodium bicarbonate in water, pH 9.8) was added to all wells and incubated for 8 minutes for α, βI, βII ε, and ζ, or for 15-20 mins for δ (until sufficient coloration is observed). The reaction was stopped by addition of Stop solution (2N NaOH) and the absorbance at 405 nm was read on a Galaxy Plate reader.

The target in assay [8] is T3, PKC-δ (purified isoform).
T3 construct: also called PKC-delta
Kind of assay: competitive ELISA, coated purified PKC-δ, vs anti-PKC δ (SC-213); PRE 100 µM. On the procedure:
as §3, §4, §5

In assay [9] the target is T3, PKC-δ (purified isoform). Kind of assay: competitive ELISA, coated purified PKC-δ, vs anti-PKC δ (SC-213); PRE 50 µM. The protocol:
as §3, §4, §5
(In general: In an ELISA, binding on a coated surface is turned into a signal by an enzyme label.)

The target of assay [10] is T2, PKC-α (purified isoform). Nature of the assay: competitive ELISA, coated purified PKC-α, vs anti-PKC α (SC-208); PRE 50 µM. On the procedure: as §3, §4, §5
Assay [11] addresses T4, PKC-βII (purified isoform) (Homo sapiens (Human), UniProt P05771 2-621).
T4 construct: also called PKC-beta II; PKC beta 2
Nature of the assay: competitive ELISA, coated purified PKC-βII, vs anti-PKC βII (SC-210); PRE 200 µM. The protocol: as §3, §4, §5

Assay [12] has as its target T4, PKC-βII (purified isoform). Nature of the assay: competitive ELISA, coated purified PKC-βII, vs anti-PKC βII (SC-210); PRE 50 µM. On the procedure: as §3, §4, §5
Assay [13] deals with T3, PKC-δ (purified isoform). Nature of the assay: competitive ELISA, coated purified PKC-δ, vs anti-PKC δ (SC-213); PRE 200 µM. The protocol: as §3, §4, §5
Assay [14] addresses T4, PKC-βII (purified isoform). Nature of the assay: competitive ELISA, coated purified PKC-βII, vs anti-PKC βII (SC-210); PRE 100 µM. On the procedure: as §3, §4, §5
Assay [15] concerns the target T2, PKC-α (purified isoform). Kind of assay: competitive ELISA, coated purified PKC-α, vs anti-PKC α (SC-208); PRE 100 µM. On the procedure: as §3, §4, §5
The target in assay [16] is T5, PKC-βI (purified isoform) (Homo sapiens (Human), UniProt P05771 2-671).
T5 construct: also called PKC-beta I; PKC beta 1
Kind of assay: competitive ELISA, coated purified PKC-βI, vs anti-PKC βI (SC-209); PRE 200 µM. On the procedure:
as §3, §4, §5

Assay [17] addresses T5, PKC-βI (purified isoform). Nature of the assay: competitive ELISA, coated purified PKC-βI, vs anti-PKC βI (SC-209); PRE 100 µM. The protocol: as §3, §4, §5
In assay [18] the target is T5, PKC-βI (purified isoform). Nature of the assay: competitive ELISA, coated purified PKC-βI, vs anti-PKC βI (SC-209); PRE 50 µM. The protocol:
as §3, §4, §5

T4 sequence (P05771 other isoform, or with tags, fused parts or gaps limits assumed): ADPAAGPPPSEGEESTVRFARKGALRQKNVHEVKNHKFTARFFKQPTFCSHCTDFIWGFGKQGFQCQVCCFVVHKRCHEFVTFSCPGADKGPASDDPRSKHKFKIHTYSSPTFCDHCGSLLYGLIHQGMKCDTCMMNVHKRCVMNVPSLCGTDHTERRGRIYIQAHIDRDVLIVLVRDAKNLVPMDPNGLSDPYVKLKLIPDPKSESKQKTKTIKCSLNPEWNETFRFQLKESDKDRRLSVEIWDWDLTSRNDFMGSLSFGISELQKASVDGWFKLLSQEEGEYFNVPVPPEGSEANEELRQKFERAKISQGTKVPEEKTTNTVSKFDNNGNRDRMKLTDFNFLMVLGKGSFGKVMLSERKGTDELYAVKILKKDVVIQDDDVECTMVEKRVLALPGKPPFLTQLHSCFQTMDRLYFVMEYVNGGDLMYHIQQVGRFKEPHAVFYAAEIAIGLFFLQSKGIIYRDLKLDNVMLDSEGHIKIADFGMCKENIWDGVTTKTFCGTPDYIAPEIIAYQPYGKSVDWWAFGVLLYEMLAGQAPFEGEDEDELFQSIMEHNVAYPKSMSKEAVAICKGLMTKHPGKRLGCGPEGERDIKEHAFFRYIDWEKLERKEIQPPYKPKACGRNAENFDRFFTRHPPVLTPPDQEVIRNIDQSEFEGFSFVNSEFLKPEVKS
T5 sequence (P05771 2-671 limits assumed): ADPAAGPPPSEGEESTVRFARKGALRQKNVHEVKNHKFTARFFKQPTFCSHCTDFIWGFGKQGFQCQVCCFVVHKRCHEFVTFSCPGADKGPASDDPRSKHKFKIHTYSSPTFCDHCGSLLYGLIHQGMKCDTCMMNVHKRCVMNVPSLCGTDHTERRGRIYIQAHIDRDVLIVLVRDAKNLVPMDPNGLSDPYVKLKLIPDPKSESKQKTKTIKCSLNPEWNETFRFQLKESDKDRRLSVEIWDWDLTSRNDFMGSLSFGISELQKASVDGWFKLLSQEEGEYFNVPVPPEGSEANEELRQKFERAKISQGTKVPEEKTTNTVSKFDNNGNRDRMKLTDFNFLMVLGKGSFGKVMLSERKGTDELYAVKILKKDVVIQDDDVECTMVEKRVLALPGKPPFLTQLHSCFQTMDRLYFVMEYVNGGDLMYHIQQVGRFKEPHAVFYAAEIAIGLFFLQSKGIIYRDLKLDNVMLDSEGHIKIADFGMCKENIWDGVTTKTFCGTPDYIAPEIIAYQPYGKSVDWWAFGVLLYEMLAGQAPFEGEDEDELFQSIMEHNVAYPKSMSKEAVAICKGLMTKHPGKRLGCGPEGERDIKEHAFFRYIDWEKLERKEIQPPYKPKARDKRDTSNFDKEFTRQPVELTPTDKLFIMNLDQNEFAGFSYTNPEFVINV
T3 sequence (Q05655 whole entry, stated change not applied, canonical isoform): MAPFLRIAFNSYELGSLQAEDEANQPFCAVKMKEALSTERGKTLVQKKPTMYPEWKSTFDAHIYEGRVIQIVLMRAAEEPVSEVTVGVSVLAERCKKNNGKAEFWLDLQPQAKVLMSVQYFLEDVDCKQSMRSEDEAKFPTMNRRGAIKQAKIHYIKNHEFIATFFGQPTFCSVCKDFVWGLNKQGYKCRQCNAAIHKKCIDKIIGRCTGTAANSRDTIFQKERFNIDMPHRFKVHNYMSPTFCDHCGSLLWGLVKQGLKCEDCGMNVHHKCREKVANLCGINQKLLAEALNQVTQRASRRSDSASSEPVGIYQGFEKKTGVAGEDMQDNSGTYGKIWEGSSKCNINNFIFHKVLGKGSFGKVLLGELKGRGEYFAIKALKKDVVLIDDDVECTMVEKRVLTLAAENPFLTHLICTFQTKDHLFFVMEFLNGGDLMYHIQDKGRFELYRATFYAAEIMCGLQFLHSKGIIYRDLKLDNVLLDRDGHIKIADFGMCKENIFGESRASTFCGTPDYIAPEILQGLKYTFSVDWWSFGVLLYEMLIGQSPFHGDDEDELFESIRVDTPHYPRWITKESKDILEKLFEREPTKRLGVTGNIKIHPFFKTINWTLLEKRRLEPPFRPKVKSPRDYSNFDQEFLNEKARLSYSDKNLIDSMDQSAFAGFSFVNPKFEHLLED

B1: PRE 2 (peptide)
peptide: KDAQNLIGISL-NH2
notes: also called peptide PRE 2
B1: the “Band Intensity” value came to 323 in assay [1]; 160 in [2]; 0 in assay [3]; 0 in assay [4]; 0 in [5]; 0 in [6]. For the same molecule, the “Inhibition (%)” value is 23.4% in assay [1]; 38.6% in assay [2]; 100% in assay [3]; 100% in assay [4]; 100% in assay [5]; 100% in assay [6]. The “Relative Intensity (%)” value was 76.6% in assay [1]; 61.4% in assay [2]; 0% in [3]; 0% in [4]; 0% in assay [5]; 0% in assay [6].

B2: PRE 8 (peptide)
peptide: ILEDKGGDAQNLIGISI
notes: also called peptide PRE 8
For the molecule B2, the “relative binding capacity (100-%n, DMSO subtracted)” value in assay [7] amounted to 0%; in assay [8], 3.38%; in assay [9], 6.96%; in [10] it was 0%; in assay [11] it was 0%; in assay [12] it was 1.11%. For the same molecule, the “relative binding capacity (100-%n, DMSO subtracted)” value in assay [13] came to 6.68%; in [14] it was 0%; in assay [15] it was 0%.

B3: PRE 11 (peptide)
peptide: Ac-RDAQNLIGISI-NH2
notes: also called peptide PRE 11
As for B3, the “relative binding capacity (100-%n, DMSO subtracted)” value was 13.3% in assay [7]; 21.5% in [8]; 12.5% in assay [16]; 34.1% in assay [9]; 0% in assay [10]; 6.4% in assay [11]. Moreover, the “relative binding capacity (100-%n, DMSO subtracted)” value came out at 7.14% in [12]; 14.2% in assay [17]; 18.7% in [13]; 11% in assay [14]; 5.96% in assay [15]; 9.86% in assay [18].

B4: PRE 6 (peptide)
peptide: Ac-KDANQLIGISI-NH2
notes: also called peptide PRE 6
On to B4, for which the “relative binding capacity (100-%n, DMSO subtracted)” value in assay [7] is 0%; in assay [8], 13.2%; in assay [16], 6.14%; in assay [9], 17.5%; in assay [10] it was 0%; in [11], 0%. Also, the “relative binding capacity (100-%n, DMSO subtracted)” value in assay [12] is 0.08%; in assay [17], 7.93%; in [13], 14%; in [14] it was 0%; in assay [15], 0%; in assay [18], 0%.

B5: PRE 7 (peptide)
peptide: Ac-ISIGILQNADK-NH2
notes: also called peptide PRE 7
Turning to B5, the “relative binding capacity (100-%n, DMSO subtracted)” value stood at 6.59% in assay [7]; 0% in assay [8]; 3.06% in assay [9]; 0% in [10]; 2.59% in assay [11]; 5.42% in assay [12]. For the same molecule, the “relative binding capacity (100-%n, DMSO subtracted)” value in assay [13] came out at 0%; in [14], 11.1%; in assay [15] it was 6.72%.

B6: PRE 1 (peptide)
peptide: RRKKGGKDFVVKR
notes: also called peptide PRE 1; peptide recognition element 1
Regarding B6, the “relative binding capacity (100-%n, DMSO subtracted)” value in assay [7] was 2.1%; in assay [8] it was 45.2%; in assay [16] it was 13.4%; in assay [9] it was 35.7%; in assay [10] it was 0.69%; in [11], 0%. Besides, the “relative binding capacity (100-%n, DMSO subtracted)” value in [12] was 0%; in assay [17] it was 13.9%; in assay [13] it was 49.4%; in [14] it was 0%; in assay [15], 0%; in [18], 19.8%.
